{"source": "paper PMC3605307", "about": "(PLoS Pathogens, 2013)", "experiment_in_all_cases": "SPR", "key": {"[1]": {"biological_target": "T1, Human TRAIL-R2 ectodomain (residues 58–184), released from the Fc fusion (human, UniProt O14763 58-184, selenomethionine (only in the labelled complex of the derivative crystals))", "T1 construct": "also called DR5; TRAIL-R2 receptor; not shown: Fc (human IgG1), C-terminal, cleaved", "conditions": "both partners purified"}, "[2]": {"biological_target": "T2, TRAIL (TNF-related apoptosis inducing ligand) ectodomain (UniProt P50591 39-281)", "T2 construct": "also called TNFSF10; Apo2L", "conditions": "one partner purified"}, "[3]": {"biological_target": "T3, TRAIL (TNF-related apoptosis inducing ligand) ectodomain (UniProt P50591 39-281)", "T3 construct": "also called TNFSF10; Apo2L", "conditions": "one partner purified", "remark": "listed apart in the source"}}}
{"binder": "UL141-Fc fusion protein (Fc fusion) DIAEKMWAENYETTSPAPVLVAEGEQVTIPCTVMTHSWPMVSIRARFCRSHDGSDELILDAVKGHRLMNGLQYRLPYATWNFSQLHLGQIFSLTFNVSTDTAGMYECVLRNYSHGLIMQRFVILTQLETLSRPDEPCCTPALGRYSLGDQIWSPTPWRLRNHDCGMYRGFQRNYFYIGRADAEDCWKPACPDEEPDRCWTVIQRYRLPGDCYRSQPHPPKFLPVTPAPPADIDTGMS", "values": [{"measurement": "Kd", "setting": "[1]", "value": 21.4, "unit": "nM"}, {"measurement": "koff", "setting": "[1]", "value": 0.00564, "unit": "s⁻¹"}, {"measurement": "kon", "setting": "[1]", "value": 264000, "unit": "M⁻¹ s⁻¹"}]}
{"binder": "human TRAIL-R2-Fc D148A (Fc fusion, source: Sf9 insect cells, culture supernatant; not shown: Fc (human IgG1), C-terminal, kept) QQDLAPQQRAAPQQKRSSPSEGLCPPGHHISEDGRDCISCKYGQDYSTHWNDLLFCLRCTRCDSGEVELSPCTTTRNTVCQCEEGTFREEASPEMCRKCRTGCPRGMVKVGDCTPWSDIECVHKESG", "values": [{"measurement": "Kd", "setting": "[2]", "value": 4.48, "unit": "nM"}, {"measurement": "koff", "setting": "[2]", "value": "3.58e-05", "unit": "s⁻¹"}, {"measurement": "kon", "setting": "[2]", "value": 8000, "unit": "M⁻¹ s⁻¹"}]}
{"binder": "Human TRAIL-R2-Fc K155A (Fc fusion, source: Sf9, culture supernatant used for SPR; not shown: Fc (human IgG1), C-terminal, kept) QQDLAPQQRAAPQQKRSSPSEGLCPPGHHISEDGRDCISCKYGQDYSTHWNDLLFCLRCTRCDSGEVELSPCTTTRNTVCQCEEGTFREEDSPEMCRACRTGCPRGMVKVGDCTPWSDIECVHKESG", "values": [{"measurement": "Kd", "setting": "[3]", "value": 40, "unit": "nM"}]}
{"binder": "human TRAIL-R2-Fc K155A (Fc fusion, source: Sf9 insect cells, culture supernatant; not shown: Fc (human IgG1), C-terminal, kept) QQDLAPQQRAAPQQKRSSPSEGLCPPGHHISEDGRDCISCKYGQDYSTHWNDLLFCLRCTRCDSGEVELSPCTTTRNTVCQCEEGTFREEDSPEMCRACRTGCPRGMVKVGDCTPWSDIECVHKESG", "values": [{"measurement": "Kd", "setting": "[2]", "value": 39.7, "unit": "nM"}, {"measurement": "koff", "setting": "[2]", "value": 0.000138, "unit": "s⁻¹"}, {"measurement": "kon", "setting": "[2]", "value": 3480, "unit": "M⁻¹ s⁻¹"}]}
{"binder": "human TRAIL-R2-Fc M152A (Fc fusion, source: Sf9 insect cells, culture supernatant; not shown: Fc (human IgG1), C-terminal, kept) QQDLAPQQRAAPQQKRSSPSEGLCPPGHHISEDGRDCISCKYGQDYSTHWNDLLFCLRCTRCDSGEVELSPCTTTRNTVCQCEEGTFREEDSPEACRKCRTGCPRGMVKVGDCTPWSDIECVHKESG", "values": [{"measurement": "Kd", "setting": "[2]", "value": 202, "unit": "nM"}, {"measurement": "koff", "setting": "[2]", "value": 0.000678, "unit": "s⁻¹"}, {"measurement": "kon", "setting": "[2]", "value": 3350, "unit": "M⁻¹ s⁻¹"}]}
{"binder": "Human TRAIL-R2-Fc M152A (Fc fusion, also called TRAIL-R2 M152A mutant; source: Sf9, culture supernatant used for SPR; not shown: Fc (human IgG1), C-terminal, kept) QQDLAPQQRAAPQQKRSSPSEGLCPPGHHISEDGRDCISCKYGQDYSTHWNDLLFCLRCTRCDSGEVELSPCTTTRNTVCQCEEGTFREEDSPEACRKCRTGCPRGMVKVGDCTPWSDIECVHKESG", "values": [{"measurement": "Kd", "setting": "[3]", "value": 202, "unit": "nM"}]}
{"binder": "human TRAIL-R2-Fc P150A (Fc fusion, source: Sf9 insect cells, culture supernatant; not shown: Fc (human IgG1), C-terminal, kept) QQDLAPQQRAAPQQKRSSPSEGLCPPGHHISEDGRDCISCKYGQDYSTHWNDLLFCLRCTRCDSGEVELSPCTTTRNTVCQCEEGTFREEDSAEMCRKCRTGCPRGMVKVGDCTPWSDIECVHKESG", "values": [{"measurement": "Kd", "setting": "[2]", "value": 4.29, "unit": "nM"}, {"measurement": "koff", "setting": "[2]", "value": "9.02e-06", "unit": "s⁻¹"}, {"measurement": "kon", "setting": "[2]", "value": 2100, "unit": "M⁻¹ s⁻¹"}]}
